The data set concerns the molecule itself. Kind of data set: crystal structure.

B1: Bacillus subtilis PurR (purine synthesis transcription regulator), untagged (natural protein)
chain: MKFRRSGRLVDLTNYLLTHPHELIPLTFFSERYESAKSSISEDLTIIKQTFEQQGIGTLLTVPGAAGGVKYIPKMKQAEAEEFVQTLGQSLANPERILPGGYVYLTDILGKPSVLSKVGKLFASVFAEREIDVVMTVATKGIPLAYAAASYLNVPVVIVRKDNKVTEGSTVSINYVSGSSNRIQTMSLAKRSMKTGSNVLIIDDFMKAGGTINGMINLLDEFNANVAGIGVLVEAEGVDERLVDEYMSLLTLSTINMKEKSIEIQNGNFLRFFKDNLLKNGETES
For B1, the binding result is recorded as “binds”.
